Results taken from article PMC3592467 (Nucleic Acids Research, 2012).

T1: MBD3-GFP (UniProt O95983 1-291)
T1 sequence: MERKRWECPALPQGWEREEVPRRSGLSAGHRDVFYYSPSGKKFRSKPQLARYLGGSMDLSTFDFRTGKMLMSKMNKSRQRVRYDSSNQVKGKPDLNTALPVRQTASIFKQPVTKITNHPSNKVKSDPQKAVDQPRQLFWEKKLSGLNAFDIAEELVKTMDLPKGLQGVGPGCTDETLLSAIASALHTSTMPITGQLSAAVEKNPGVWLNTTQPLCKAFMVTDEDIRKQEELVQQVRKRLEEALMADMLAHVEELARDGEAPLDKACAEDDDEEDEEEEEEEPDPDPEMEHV


Target: T1, MBD3-GFP
Test: affinity purification with mass spectrometry

| stoichiometry N | Binder |
| --- | --- |
| ~0.01 relative to MBD3 | ZNF592 (natural protein) MGDMKTPDFDDLLAAFDIPDPTSLDAKEAIQTPSEENESPLKPPGICMDESVSLSHSGSAPDVPAVSVIVKNTSRQESFEAEKDHITPSLLHNGFRGSDLPPDPHNCGKFDSTFMNGDSARSFPGKLEPPKSEPLPTFNQFSPISSPEPEDPIKDNGFGIKPKHSDSYFPPPLGCGAVGGPVLEALAKFPVPELHMFDHFCKKEPKPEPLPLGSQQEHEQSGQNTVEPHKDPDATRFFGEALEFNSHPSNSIGESKGLARELGTCSSVPPRQRLKPAHSKLSSCVAALVALQAKRVASVTKEDQPGHTKDLSGPTKESSKGSPKMPKSPKSPRSPLEATRKSIKPSDSPRSICSDSSSKGSPSVAASSPPAIPKVRIKTIKTSSGEIKRTVTRILPDPDDPSKSPVGSPLGSAIAEAPSEMPGDEVPVEEHFPEAGTNSGSPQGARKGDESMTKASDSSSPSCSSGPRVPKGAAPGSQTGKKQQSTALQASTLAPANLLPKAVHLANLNLVPHSVAASVTAKSSVQRRSQPQLTQMSVPLVHQVKKAAPLIVEVFNKVLHSSNPVPLYAPNLSPPADSRIHVPASGYCCLECGDAFALEKSLSQHYGRRSVHIEVLCTLCSKTLLFFNKCSLLRHARDHKSKGLVMQCSQLLVKPISADQMFVSAPVNSTAPAAPAPSSSPKHGLTSGSASPPPPALPLYPDPVRLIRYSIKCLECHKQMRDYMVLAAHFQRTTEETEGLTCQVCQMLLPNQCSFCAHQRIHAHKSPYCCPECGVLCRSAYFQTHVKENCLHYARKVGYRCIHCGVVHLTLALLKSHIQERHCQVFHKCAFCPMAFKTASSTADHSATQHPTQPHRPSQLIYKCSCEMVFNKKRHIQQHFYQNVSKTQVGVFKCPECPLLFVQKPELMQHVKSTHGVPRNVDELSSLQSSADTSSSRPGSRVPTEPPATSVAARSSSLPSGRWGRPEAHRRVEARPRLRNTGWTCQECQEWVPDRESYVSHMKKSHGRTLKRYPCRQCEQSFHTPNSLRKHIRNNHDTVKKFYTCGYCTEDSPSFPRPSLLESHISLMHGIRNPDLSQTSKVKPPGGHSPQVNHLKRPVSGVGDAPGTSNGATVSSTKRHKSLFQCAKCSFATDSGLEFQSHIPQHQVDSSTAQCLLCGLCYTSASSLSRHLFIVHKVRDQEEEEEEEAAAAEMAVEVAEPEEGSGEEVPMETRENGLEECAGEPLSADPEARRLLGPAPEDDGGHNDHSQPQASQDQDSHTLSPQV |
| ~0.01 relative to MBD3 | ZMYND8 (natural protein) MDISTRSKDPGSAERTAQKRKFPSPPHSSNGHSPQDTSTSPIKKKKKPGLLNSNNKEQSELRHGPFYYMKQPLTTDPVDVVPQDGRNDFYCWVCHREGQVLCCELCPRVYHAKCLRLTSEPEGDWFCPECEKITVAECIETQSKAMTMLTIEQLSYLLKFAIQKMKQPGTDAFQKPVPLEQHPDYAEYIFHPMDLCTLEKNAKKKMYGCTEAFLADAKWILHNCIIYNGGNHKLTQIAKVVIKICEHEMNEIEVCPECYLAACQKRDNWFCEPCSNPHPLVWAKLKGFPFWPAKALRDKDGQVDARFFGQHDRAWVPINNCYLMSKEIPFSVKKTKSIFNSAMQEMEVYVENIRRKFGVFNYSPFRTPYTPNSQYQMLLDPTNPSAGTAKIDKQEKVKLNFDMTASPKILMSKPVLSGGTGRRISLSDMPRSPMSTNSSVHTGSDVEQDAEKKATSSHFSASEESMDFLDKSTASPASTKTGQAGSLSGSPKPFSPQLSAPITTKTDKTSTTGSILNLNLDRSKAEMDLKELSESVQQQSTPVPLISPKRQIRSRFQLNLDKTIESCKAQLGINEISEDVYTAVEHSDSEDSEKSDSSDSEYISDDEQKSKNEPEDTEDKEGCQMDKEPSAVKKKPKPTNPVEIKEELKSTSPASEKADPGAVKDKASPEPEKDFSEKAKPSPHPIKDKLKGKDETDSPTVHLGLDSDSESELVIDLGEDHSGREGRKNKKEPKEPSPKQDVVGKTPPSTTVGSHSPPETPVLTRSSAQTSAAGATATTSTSSTVTVTAPAPAATGSPVKKQRPLLPKETAPAVQRVVWNSSSKFQTSSQKWHMQKMQRQQQQQQQQNQQQQPQSSQGTRYQTRQAVKAVQQKEITQSPSTSTITLVTSTQSSPLVTSSGSMSTLVSSVNADLPIATASADVAADIAKYTSKMMDAIKGTMTEIYNDLSKNTTGSTIAEIRRLRIEIEKLQWLHQQELSEMKHNLELTMAEMRQSLEQERDRLIAEVKKQLELEKQQAVDETKKKQWCANCKKEAIFYCCWNTSYCDYPCQQAHWPEHMKSCTQSATAPQQEADAEVNTETLNKSSQGSSSSTQSAPSETASASKEKETSAEKSKESGSTLDLSGSRETPSSILLGSNQGSDHSRSNKSSWSSSDEKRGSTRSDHNTSTSTKSLLPKESRLDTFWD |
